In paper PMC7583084, “Biochemical Characterization of a Flavonoid O-methyltransferase from Perilla Leaves and Its Application in 7-Methoxyflavonoid Production” (Molecules, 2020):

Assays:
Conditions in all cases: co-substrate SAM (100 µM in activity assay), 20 mM Tris-HCl pH 7.5, 37 °C, substrate 0.5-100 µM
purified protein = substrate: O=c1cc(-c2ccc(O)cc2)oc2cc(O)cc(O)c12; test: purified protein
[1] = substrate: O=c1c(O)c(-c2ccc(O)cc2)oc2cc(O)cc(O)c12; test: HPLC assay of 7-O-methylation; type: biochemical, Perilla frutescens
[2] = substrate: O=C1C[C@@H](c2ccc(O)cc2)Oc2cc(O)cc(O)c21; test: HPLC assay of 7-O-methylation; type: biochemical, Perilla frutescens
[3] = substrate: O=c1cc(-c2ccccc2)oc2cc(O)cc(O)c12; test: HPLC assay of 7-O-methylation; type: biochemical, Perilla frutescens
[4] = substrate: O=c1cc(-c2ccc(O)c(O)c2)oc2cc(O)cc(O)c12; test: HPLC assay of 7-O-methylation; type: biochemical, Perilla frutescens
[5] = substrate: O=C1C[C@@H](c2ccc(O)c(O)c2)Oc2cc(O)cc(O)c21; test: HPLC assay of 7-O-methylation; type: biochemical, Perilla frutescens

B1: PfOMT3 (Perilla frutescens) (protein)
chain: MKNSSTDEDLSIFAMQVATSSIVPRALKAVIELDLLEMMKKAGRPLSTSEMAAQIQATNPEAALMIDRILRVLIASNILECTTAASHGGAERLYSLAPVCKFFTKNDDGVSWAPLFLMIQDRVFTEAWDHVKDAIVEGGIPFNIAHGMSGFEYPATDPRYNKIFNQAMSDESTMFMHKILELYDGFDGLKSVVDVGGGIGASLKMIITKYPSIQAINFDLPHVIQNAPSHPGLEHRSGDMFVSVPTGDAILLKWIIHNWSDGHCLKLLKNCYEALPEKGKVIIADRILPETENYKEASASVDLAGDALMLTLFTGGKERAEAEFQALAKASGFKHFRKVCCAFSTWIMELYK
notes: primers encode MKNSSTD at start and IMELYK at end
For B1, the Km (purified protein) was 3.72 ± 0.05 µM, the Vmax (purified protein) was 0.0133 µmol/min/mg and the kcat (purified protein) was 0.0091 s⁻¹. For the same protein, the kcat/Km (purified protein) was 2440 M⁻¹ s⁻¹, the Km [1] was 17.88 ± 0.49 µM and the Vmax [1] was 0.00581 µmol/min/mg. It also gave a kcat [1] of 0.00397 s⁻¹, a kcat/Km [1] of 222 M⁻¹ s⁻¹ and a Km [2] of 13.40 ± 1.29 µM. For the same protein, the Vmax [2] was 0.0517 µmol/min/mg, the kcat [2] was 0.0353 s⁻¹ and the kcat/Km [2] was 2630 M⁻¹ s⁻¹. The Km [3] was 1.31 ± 0.25 µM, the Vmax [3] was 0.00205 µmol/min/mg and the kcat [3] was 0.0014 s⁻¹. For the same protein, the kcat/Km [3] was 1070 M⁻¹ s⁻¹, the Km [4] was 34.21 ± 4.65 µM and the Vmax [4] was 0.00418 µmol/min/mg. It also gave a kcat [4] of 0.00285 s⁻¹, a kcat/Km [4] of 83.4 M⁻¹ s⁻¹ and a Km [5] of 13.08 ± 1.42 µM. The Vmax [5] was 0.00784 µmol/min/mg, the kcat [5] was 0.00535 s⁻¹ and the kcat/Km [5] was 409 M⁻¹ s⁻¹.
